The supplement of paper PMC9170038

Test system: MS2 coat protein
Assay: apparent KD of MS2 coat protein; designed switch direction (-1 OFF switch, 1 ON switch): -1; higher = weaker reporter binding
Outline: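 SNAP-549-labelled MS2 coat protein was titrated, doubling from 0.7 or 1.5 nM to 3 µM, over designed RNA switches transcribed on Illumina chips by stalled E. coli RNA polymerase. Runs were done without input, with 200 uM small-molecule ligand, or with an oligonucleotide input. Apparent KD is the per-design median over clusters of curve-fitted normalised fluorescence.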

[1] = Eterna round: R95, input ligand: microRNA oligo, concentration not stated
[2] = Eterna round: R95, input ligand: FMN 200 uM
[3] = Eterna round: R95, input ligand: none
[4] = input ligand: microRNA oligo, concentration not stated

Sequence	apparent KD of MS2 coat protein (input ligand: FMN 200 uM)	apparent KD of MS2 coat protein (input ligand: none)	other results
UCGCUGCGAGGAUAUACGUGCGCGCGCUCGCGUUCGCGCGUACAUGAGGAUCACCCAUGUAGAAGGCGCGCUGC [Apr-15 SS2-5] (puzzle: Exclusion 2)	–	–	apparent KD of MS2 coat protein [1]: 11.1 nM
UCGGCGCGAGGAUAUACGUUUGCUUUUUAGGAUCGUUGCGUACAUGAGGAUCACCCAUGUAGAAGGCGCGCCGC [Apr-15 SS2-27] (puzzle: Exclusion 2)	–	–	apparent KD of MS2 coat protein [1]: 12.4 nM
UCGUGAUUAGAGGAUAUAUUUUGAGUCAGAACAAUAGAAGGCUAAACAUGAGGAUCACCCAUGUAAAUGUGUAA [JR_Ex6_Sub061] (Eterna round: R97, puzzle: Exclusion 6)	184 nM	34.9 nM	–
UCGUGGUAAAUCAGGUGAUGUCUGAUAGGAUGGACUUUGACAUGAGGAUCACCCAUGUUGCUUUUUGCCCGUCUUAA [JR_SV3TOV2_Sub044] (puzzle: Sensor v3, turn-off variant 2)	–	–	apparent KD of MS2 coat protein [2]: 16.1 nM; apparent KD of MS2 coat protein [1]: 27.3 nM; apparent KD of MS2 coat protein [3]: 15.2 nM
UCUAAACAUGAGGAUCACCCAUGUGAGGAUAUGAUGCAGCAGUGGUCUACGCUGUGCAUCAGAAGGCGCAUGUG (puzzle: Exclusion 1)	–	–	apparent KD of MS2 coat protein [2]: 148 nM; apparent KD of MS2 coat protein [1]: 72.2 nM; apparent KD of MS2 coat protein [3]: 80.4 nM
UCUGCCGCCGUGAGGAUAUGCCCGAAAAAACGCGGGCAGAAGGCACAUGAGGAUCACCCAUGUCCCGCGGUUUU [salish99_bmx4_r4_136] (Eterna round: R97, puzzle: Brourd's mod of Exclusion 4)	31 nM	15.8 nM	–
UCUGUUAUGCGAGGAUAUCGACCAUUCCUCUUAACAUGAGGAUCACCCAUGUGCUAAACCUACAACGAGAAGGCGCUCAUACUC [JR_ExcNG2_Sub068] (Eterna round: R96, puzzle: Exclusion NG 2)	156 nM	143 nM	apparent KD of MS2 coat protein [4]: 102 nM
UCUUUACAUGAGGAUCACCCAUGUCAGGAUAUCAACUUUUGGGACUUCGGAUAUAAGAUGAGAAGGGACACCGG [Eternabot (L2) Solution 53] (Eterna round: R97, puzzle: Exclusion 1)	19.2 nM	19.4 nM	–
UGAAAGUGAGGAUAUCCAAUAUAUGACAUGAGGAUCACCCAUGUUUCCACUCGUACCUCCGGAGAAGGCACAAGGU [Ex5 #57] (Eterna round: R97, puzzle: Exclusion 5)	25.5 nM	29.4 nM	–
UGAAAGUGAGGAUAUGGUGAGUAGUGCCUGAGCGCUGCUCACCAGAAGGCACAUGAGGAUCACCCAUGUAAAUG [Mat - Exclusion 4 - Mod of JL - D20] (puzzle: Exclusion 4)	–	–	apparent KD of MS2 coat protein [1]: 38.9 nM
UGAAUGUGAGGAUAUGGUGAGUAGUGCCUAAGCGCUGCUCACCAGAAGGCACAUGAGGAUCACCCAUGUACUUG [Mat - Exclusion 4 - Mod of JL - D19] (puzzle: Exclusion 4)	–	–	apparent KD of MS2 coat protein [1]: 47.9 nM
UGACUACAUGAGGAUCACCCAUGUCAGGAUAUGCCGUUAAAUUAACAUCAACAUACGGGUAGAAGGGACAGCGU [1st #5] (Eterna round: R97, puzzle: Exclusion 1)	27.2 nM	29.4 nM	–
UGAGACUGAGGAUAUACUAGACUACAAAGUAGUCAGUGGGUACAUGAGGAUCACCCAUGUAGAAGGCAGCCUCG [Omei Repeat Sequence v1] (Eterna round: R97, puzzle: Exclusion 2)	289 nM	35.9 nM	–
UGAGACUGAGGAUAUACUAGCCCAUAAAGUGGGUUGUGGGUACAUGAGGAUCACCCAUGUAGAAGGCAGCCUCG [Omei Repeat Sequence v4] (Eterna round: R97, puzzle: Exclusion 2)	516 nM	75.4 nM	–
UGAGUGCUGCGAGGAUAUACAUGAGGAUCACCCAUGUAAACCUGUGAGGCUUUGCCUCACAGGAUGUAGAAGGCGCAGUACUCU [JL ENG2 1.16] (Eterna round: R96, puzzle: Exclusion NG 2)	15.5 nM	13.2 nM	apparent KD of MS2 coat protein [4]: 9.94 nM
UGAUCACAUGAGGAUCACCCAUGUCAGGAUAUCGUCACUGGAGCUUCGGCUCCAGUGACGAGAAGGGACAUAAU [E1/3-A1] (Eterna round: R97, puzzle: Exclusion 1)	77.4 nM	141 nM	–
UGAUCUAGGCGAGGAUAUACAUGAGGAUCACCCAUGUAAACGUGACAUGGAAACAUGUCACGUGUGUAGAAGGCGCCUAGAUCU [MOD2 ENG2 3.54 by JL] (Eterna round: R96, puzzle: Exclusion NG 2)	15.7 nM	13.2 nM	apparent KD of MS2 coat protein [4]: 10.8 nM
UGAUCUUUUGUUAGGAUAUGCUGGGUUUUUUCUCAGCAGAAGGGACAUGAGGAUCACCCAUGUUCUCUCUUUUU [Magic-08] (puzzle: Brourd's mod of Exclusion 4)	–	–	apparent KD of MS2 coat protein [1]: 9.72 nM

Sequence	apparent KD of MS2 coat protein (input ligand: FMN 200 uM)	apparent KD of MS2 coat protein (input ligand: none)	other results
UGAUGACAUGAGGAUCACCCAUGUCAGGAUAUUGAAGUUGAAGUGAAAGCUUCGGCUUCGAGAAGGGACUGUCG [-29.3, -26.3 kcal, A 28% sequence 3] (Eterna round: R97, puzzle: Exclusion 1)	29.5 nM	25 nM	–
UGAUUGUUUACCAGGUUAUACAUGAGGAUCACCCAUGUAGAUCCUACGUGCGCGUUGUUCCGCUCGUCUUAUUGCCA [Sensor-V1 #80] (Eterna round: R97, puzzle: Sensor, turn-off variant 1)	22.6 nM	24.8 nM	–
UGCAGACGAGGAUAUAGAUUUAAGUACAUGAGGAUCACCCAUGUACAUAUGUAUUUAGAUUUAGAAGGCGUCUGCU [E5/16-A4] (Eterna round: R97, puzzle: Exclusion 5)	28.5 nM	29.8 nM	–
UGCCGUAGAGGAUAUACAUUGAAUAAGAUUCAUGUAGAACUACAUGAGGAUCACCCAUGUAGAAGGCUAUGGCU [JL-ex2-4.38 Eli mod] (Eterna round: R97, puzzle: Exclusion 2)	29.5 nM	16.9 nM	–
UGCGGGCUUUUGAGACCUCACAUGAGGAUCACCCAUGUGCUUGUCUUGUGGGUCGGUCGGUCGUUGGCUGGCUGGCU [-29.6, -52.1 kcal, A 10%] (Eterna round: R97, puzzle: Sensor, turn-off variant 1)	18 nM	17.8 nM	–
UGCGGGCUUUUGAGACCUCACAUGAGGAUCACCCAUGUGCUUGUCUUGUGGGUGGGUAGGUCGUUGGCUGACUCACG [Sensor-V1 #98] (Eterna round: R97, puzzle: Sensor, turn-off variant 1)	68.2 nM	68.9 nM	–
UGGAGAUAUAAGGAUAUAUUAGGAGGAGAGGAAAUAGAAGGUGUAACAUGAGGAUCACCCAUGUACCUCAUGUA [Default title] (Eterna round: R97, puzzle: Exclusion 6)	693 nM	985 nM	–
UGGGUCCAAGGAUAUACAUGAGGAUCACCCAUGUGAGAUUCGAUGCUGUGCCAAUUGUGUAGAAGGUGGCCACC [Eternabot (L2) Solution 32] (Eterna round: R97, puzzle: Exclusion 3)	45.3 nM	44.1 nM	–
UGGUAACAUGAGGAUCACCCAUGUCAGGAUAUCAUGAAGAGGAGAGGAGAGGAGAGGAUGAGAAGGGACUAUAU [Excluse me! 13 - Jieux - Exclusion 1] (puzzle: Exclusion 1)	–	–	apparent KD of MS2 coat protein [2]: 39 nM; apparent KD of MS2 coat protein [1]: 30.4 nM; apparent KD of MS2 coat protein [3]: 38.4 nM
UGGUCACAUGAGGAUCACCCAUGUCAGGAUAUCGUCACUGGAGCUGCGGCUCCAGUGACGAGAAGGGACAUAAU [E1/6-A3] (Eterna round: R97, puzzle: Exclusion 1)	162 nM	253 nM	–
UGUAGUUCAGGAUAUGAUGUAUAAUACAUGAGGAUCACCCAUGUAGAUCCUGAAUUUACAUCAGAAGGGAAUAUUU [JL-ex5-4.58 Brourd mod] (Eterna round: R97, puzzle: Exclusion 5)	20.4 nM	15.4 nM	–
UGUAUUAGGUCAGGAUAUACAUGAGGAUCACCCAUGUACAUGGAGCGAGUACAGUAUCAUGCAAGGUAGAAGGGACAGUCGACG [success! :D] (Eterna round: R96, puzzle: Exclusion NG 2)	21.6 nM	24.3 nM	apparent KD of MS2 coat protein [4]: 15.7 nM
UGUCUACAUGAGGAUCACCCAUGUCAGGAUAUGCUCGAUAUAUGGAAACAUAUAUCGAGCAGAAGGGACUAGCG [Jieuxxlusion 5 - Jieux - Exclusion 1] (Eterna round: R97, puzzle: Exclusion 1)	53.5 nM	28.4 nM	–
UGUGGAGCUUAGGAUAUUGCUCUACCAAGAGGGCGAGAAGGGAGCACAUGAGGAUCACCCAUGUGGUCCGGAAC [Edoroner] (puzzle: Exclusion 6)	–	–	apparent KD of MS2 coat protein [2]: 26 nM; apparent KD of MS2 coat protein [1]: 14.7 nM; apparent KD of MS2 coat protein [3]: 14.6 nM
UGUGUGAGACAGGAUAUGCCGGAUGUAUUACUGGUAGAAGGGUCUACAUGAGGAUCACCCAUGUGGCCGGCCGG [Ex6 #83] (Eterna round: R97, puzzle: Exclusion 6)	31.3 nM	21.1 nM	–
UGUGUGUCAGGAUAUAGUUCGAGUUCGGAAAUGAGCUUGAGCUAGAAGGGACAUGAGGAUCACCCAUGUGCACG [-26.3, -25.3 kcal, A 27%, 1-(ca)1] (Eterna round: R97, puzzle: Exclusion 4)	148 nM	83.6 nM	–
UGUUCGGUAGGAUAUACAUCGCUGAAGUGGCGGUGACUUCAACAUGAGGAUCACCCAUGUAGAAGGGCCGGCUC [EX2 C.4] (Eterna round: R97, puzzle: Exclusion 2)	17.3 nM	16.5 nM	–
